What is called Kd is the free concentration of one partner at which half of the binding sites on the other are occupied at equilibrium, for simple one-to-one binding.

The target in assay [1] is N-terminally His-tagged Pasteurella multocida toxin (PMT) (Pasteurella multocida) (UniProt P17452). The assay can be described thus: ELISA; solid-phase binding assay; His-PMT coated at 10 ug/mL (500 ng/well) on 96-well Maxisorb plates at 4 C overnight; LRP1 cluster 2, 3 or 4 at 0.02-500 nM, RT, 2 h; TBS with 2 mM CaCl2; bound ligand detected with goat anti-human IgG-HRP. In general terms: An ELISA detects its analyte on a solid surface through an enzyme-linked reagent.
UniProt P17452, sequence (P17452 whole entry): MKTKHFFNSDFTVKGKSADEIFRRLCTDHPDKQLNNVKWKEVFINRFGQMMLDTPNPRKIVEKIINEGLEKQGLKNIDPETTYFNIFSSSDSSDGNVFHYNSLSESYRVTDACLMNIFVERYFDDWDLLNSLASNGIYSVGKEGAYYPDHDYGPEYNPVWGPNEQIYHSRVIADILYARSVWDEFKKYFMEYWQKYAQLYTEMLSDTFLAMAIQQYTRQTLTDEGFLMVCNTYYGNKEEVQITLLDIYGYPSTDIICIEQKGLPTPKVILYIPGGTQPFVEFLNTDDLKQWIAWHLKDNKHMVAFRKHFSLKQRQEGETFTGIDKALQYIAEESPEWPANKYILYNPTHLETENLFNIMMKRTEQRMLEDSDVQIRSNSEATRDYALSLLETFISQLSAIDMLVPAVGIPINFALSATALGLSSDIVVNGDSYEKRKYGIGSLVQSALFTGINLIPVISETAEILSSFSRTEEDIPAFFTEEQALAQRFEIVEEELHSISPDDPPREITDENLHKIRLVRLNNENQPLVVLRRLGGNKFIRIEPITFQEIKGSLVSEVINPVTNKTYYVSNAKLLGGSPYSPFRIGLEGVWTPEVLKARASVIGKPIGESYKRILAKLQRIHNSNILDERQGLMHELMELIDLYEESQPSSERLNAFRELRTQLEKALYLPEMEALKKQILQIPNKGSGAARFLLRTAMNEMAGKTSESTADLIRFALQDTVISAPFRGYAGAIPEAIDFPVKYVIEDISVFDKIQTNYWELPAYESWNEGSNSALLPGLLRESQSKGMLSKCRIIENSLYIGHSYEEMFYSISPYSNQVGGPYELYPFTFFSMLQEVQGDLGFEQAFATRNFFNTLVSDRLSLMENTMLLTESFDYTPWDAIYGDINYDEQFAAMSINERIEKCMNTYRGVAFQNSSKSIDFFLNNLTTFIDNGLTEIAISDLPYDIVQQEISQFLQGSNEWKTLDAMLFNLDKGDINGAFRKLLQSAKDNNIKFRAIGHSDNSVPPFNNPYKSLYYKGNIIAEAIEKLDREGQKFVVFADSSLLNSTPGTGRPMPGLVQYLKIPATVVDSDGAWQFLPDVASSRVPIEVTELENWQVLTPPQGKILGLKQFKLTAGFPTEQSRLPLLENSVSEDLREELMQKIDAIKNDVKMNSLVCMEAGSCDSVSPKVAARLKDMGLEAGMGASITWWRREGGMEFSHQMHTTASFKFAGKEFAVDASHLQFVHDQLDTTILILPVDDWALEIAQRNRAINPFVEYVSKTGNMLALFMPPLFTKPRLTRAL

The target of assay [2] is LRP1 (Homo sapiens) (UniProt Q07954). The conditions noted are these: cited from earlier work.

As to “LRP1 cluster 2 (commercially available extracellular domain) (from UniProt Q07954 20-4544) (domain or fragment)”, the dissociation constant (Kd) in assay [1] came out at 41.6 nM. Consider “LRP1 cluster 4 (commercially available extracellular domain) (from UniProt Q07954 20-4544) (domain or fragment)”, for which the Kd in assay [1] stood at 2.28 nM. Consider “Pseudomonas exotoxin A (from UniProt P11439)”, for which, in assay [2], the dissociation constant (Kd) was 5.2 nM.

These data come from publication PMC9797058.
